Test results as given in paper PMC2721222 (Cancer research, 2009).

T1: His-tagged MUC1 cytoplasmic domain (UniProt P15941 1182-1255)
T1 sequence (looked up): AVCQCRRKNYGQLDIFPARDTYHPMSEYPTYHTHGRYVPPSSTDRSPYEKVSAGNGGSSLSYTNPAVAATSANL


Columns and labels:
[1] = molecular target: MUC1-CD cytoplasmic domain (Homo sapiens) (UniProt P15941); details: cited from earlier work
[2] = molecular target: T1, His-tagged MUC1 cytoplasmic domain; test: SPR

Row | Kd [2] | Molecule | Kd [1]
1 | – | MUC1-CD cytoplasmic domain (from UniProt P15941) | 33 nM
2 | 30 nM | CQCRRKNYGQLDIFP (poly D-arginine transduction domain (D-residues)) [GO-201] | –
